Results on 132 substances are retold here after the supplement of paper PMC12042874.

± gives the uncertainty stated by the source.

The data set in a line: amyloid nucleation score (Sup35N fusion, yeast selection) (log enrichment); library NNK3; higher = more nucleation; inactive = no reads after selection. In short, it runs like this:
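The nucleation score is the log enrichment of output over input reads, calculated with DiMSum and centred on the mode score of non-aggregating sequences. Sequences with under 100 input reads were excluded. Reads came from Illumina sequencing of plasmid inserts from psi-negative yeast expressing Sup35N fused to peptides of 20 random codons, induced 24 hours with 100 μM copper sulfate and grown 7 days at 30°C without adenine and uracil.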
In turn, CFDFSCVFLKEMQYGGETGS returned an amyloid nucleation score of 1.07 ± 0.12.

As to CFDLVCTLCFLFRLARVVEW, the amyloid nucleation score result is “inactive”.

With CFKRLVIIMGGLGAA, the amyloid nucleation score entry was “inactive”.

CFPCLWP yielded an amyloid nucleation score of 1.26 ± 0.12.

On to CFQQVHN, for which the amyloid nucleation score entry was “inactive”.

CFRAGVIFIWGVHNSYYRTS showed an amyloid nucleation score of 2.23 ± 0.082.

Take CFSELIYMLLNVDGNFSLRV: the amyloid nucleation score entry was “inactive”.

Turning to CFTRLVRRGNSQIKRAPGEP, the amyloid nucleation score entry is “inactive”.

CFVAILNVIFGWSY registered an amyloid nucleation score of 1.43 ± 0.069.

On to CFVKGFTIETFWLKVVGIRG, for which the amyloid nucleation score entry is “inactive”.

On to CGDLVGTSKYSTLLEWRS, for which the amyloid nucleation score result was “inactive”.

In the case of CGIYTFLRLRD, the amyloid nucleation score result is “inactive”.

Substance CGLQLQCMVEVLVVCPEQLL returned an amyloid nucleation score of 0.737 ± 0.16.

For the substance CGMLTGVIKNLDLTRRYKC, the amyloid nucleation score result is “inactive”.

With CGRRALSTELIVCLCSPFYV, the amyloid nucleation score result is “inactive”.

For the substance CGTSHVMFWHVPRGVLKRMY, the amyloid nucleation score entry is “inactive”.

Consider CHASVW, for which the amyloid nucleation score entry is “inactive”.

Turning to CHILKPWLGVRKPSPFCNYS, the amyloid nucleation score result is “inactive”.

As to CIIFTRMATTGG, the amyloid nucleation score entry is “inactive”.

CIIRVYCFWFTDGDFYVLYR: the amyloid nucleation score entry is “inactive”.

As for CIREKLILIMTSRSIMLLKS, the amyloid nucleation score entry was “inactive”.

In the case of CIVLTVKCSLA, the amyloid nucleation score was -0.669 ± 0.55.

As to CKCVCNGAKDRFST, the amyloid nucleation score result was “inactive”.

Consider CKTVAYEYFTGLSLVLDFTR, for which the amyloid nucleation score result was “inactive”.

In the case of CKVSAL, the amyloid nucleation score entry is “inactive”.

CKVTHSLI: the amyloid nucleation score result is “inactive”.

As to CLALYRGRMLSGKVRRCTTS, the amyloid nucleation score entry is “inactive”.

With CLEPNILVLIMEFVY, the amyloid nucleation score entry was “inactive”.

In the case of CLFRQTFCMGP, the amyloid nucleation score result is “inactive”.

As for CLFYLCRARMMFNWPSCTRG, the amyloid nucleation score was 0.933 ± 0.22.

CLGGHLTHLHL: the amyloid nucleation score result is “inactive”.

Take CLGPKCATKDIFL: the amyloid nucleation score result is “inactive”.

For CLGVSNTYHWSYRRIFRYRF, the amyloid nucleation score result was “inactive”.

As to CLISLDHIFLPSWNTGICIL, the amyloid nucleation score result is “inactive”.

On to CLISQFVY, for which the amyloid nucleation score result was “inactive”.

With CLKTFVFMTDTRG, the amyloid nucleation score turned out to be 1.47 ± 0.12.

Take CLMPLSDN: the amyloid nucleation score entry was “inactive”.

Take CLRVICCFWKRPGFDWYLEM: the amyloid nucleation score result was “inactive”.

As for CLSMSLAKLGVIYL, the amyloid nucleation score turned out to be 0.724 ± 0.21.

Regarding CLYLYVRLRYSLVSSSHPFL, the amyloid nucleation score entry was “inactive”.

Regarding CMFLGSELCWRRPRGS, the amyloid nucleation score came out at 0.443 ± 0.32.

With CMFSLV, the amyloid nucleation score result is “inactive”.

In the case of CMFYLLVSLPWVAVTSVLRV, the amyloid nucleation score result was “inactive”.

CMLSPV: the amyloid nucleation score entry was “inactive”.

As for CMPFMR, the amyloid nucleation score result was “inactive”.

With CMYKTFHFDY, the amyloid nucleation score entry was “inactive”.

For the substance CNCRKRLVWSFGYMNISMYL, the amyloid nucleation score entry was “inactive”.

For CNDFNSYVRCYIMSNNFFRY, the amyloid nucleation score entry is “inactive”.

CNFQYILCRIM: the amyloid nucleation score amounted to 2.15 ± 0.057.

CNGFTVGWPWGRRLRDPPGH: the amyloid nucleation score was -0.598 ± 2.4.

Regarding CNIISQTRGHEISQCGSWMW, the amyloid nucleation score entry was “inactive”.

On to CNWMIPASSP, for which the amyloid nucleation score result is “inactive”.

Take CPCMLMMFSVGLTSSSPILC: the amyloid nucleation score came out at 0.268 ± 0.44.

Regarding CPFHIIHKQSLRKMMSTWEA, the amyloid nucleation score entry is “inactive”.

Take CPFLILIFGYPK: the amyloid nucleation score entry is “inactive”.

On to CPVRGPKVVIQCMMLSILTV, for which the amyloid nucleation score result was “inactive”.

In the case of CPYLLNVIMWAIFRSANFVA, the amyloid nucleation score entry is “inactive”.

CQFVKVMCLHSYILRPSPPP: the amyloid nucleation score entry was “inactive”.

Take CQNLATRSFKALPLRSLCTC: the amyloid nucleation score entry is “inactive”.

Consider CQSLLSGRFTGKSFEIT, for which the amyloid nucleation score result is “inactive”.

Take CQVMSNFCNGMPQTQFGVGS: the amyloid nucleation score result was “inactive”.

In the case of CQYFLSWRASVC, the amyloid nucleation score entry was “inactive”.

Take CRCDFFDSKAAPIGGGNNVL: the amyloid nucleation score result was “inactive”.

In the case of CRCNVSLGILFKRGMSKRRI, the amyloid nucleation score amounted to 1.01 ± 0.11.

For CRCRFLAVWWNSVGYNDGVG, the amyloid nucleation score entry is “inactive”.

In the case of CRENKEYIQGSDTLNFHYPM, the amyloid nucleation score result is “inactive”.

Take CRGGNFRPMEGATVNPLFEG: the amyloid nucleation score result was “inactive”.

As to CRGYADFT, the amyloid nucleation score entry was “inactive”.

For CRRVDFGSLSRFMGSGFNVD, the amyloid nucleation score entry was “inactive”.

As to CRSEYYAF, the amyloid nucleation score entry was “inactive”.

Regarding CRSIWITPGNYAFALSFLMR, the amyloid nucleation score entry is “inactive”.

In the case of CRTTRLTLNGVIVGNAGFSI, the amyloid nucleation score entry was “inactive”.

Turning to CRVFDYFSLRVYVTVRYSLF, the amyloid nucleation score entry is “inactive”.

Substance CRWGNVIYFFTR gave an amyloid nucleation score of 1.45 ± 0.12.

Regarding CRYLICVGS, the amyloid nucleation score result was “inactive”.

For the substance CRYNVIYWGIDSCYHMWSWR, the amyloid nucleation score entry was “inactive”.

As to CSAFAYRSSWRFAWNTIFDY, the amyloid nucleation score entry was “inactive”.

In the case of CSAYNLSYHGGRDVRCRNTF, the amyloid nucleation score result was “inactive”.

Regarding CSCIGWLRNGDVSCNVDRAS, the amyloid nucleation score result is “inactive”.

For the substance CSFGRS, the amyloid nucleation score entry was “inactive”.

Consider CSGHYLFILLGFDTYNGEVF, for which the amyloid nucleation score entry was “inactive”.

As to CSHYFNVYTLRCISSIGDS, the amyloid nucleation score result was “inactive”.

As for CSISSKIFLLLMNWLCWSCG, the amyloid nucleation score entry is “inactive”.

For the substance CSLGLLMVQRERC, the amyloid nucleation score stood at 1.38 ± 0.098.

In the case of CSNSGFTGENRVARLPRDGG, the amyloid nucleation score result was “inactive”.

Consider CSNVRPLD, for which the amyloid nucleation score entry is “inactive”.

With CSQNT, the amyloid nucleation score result is “inactive”.

Turning to CSRSKNNTFRHSLWFHRYYA, the amyloid nucleation score result was “inactive”.

CSSKKRDV: the amyloid nucleation score result is “inactive”.

In the case of CSSSYMGQDHVFVSDSARCS, the amyloid nucleation score entry is “inactive”.

On to CSVGVAVGMIG, for which the amyloid nucleation score entry is “inactive”.

With CSYILVFSNSFFFHAHSTWV, the amyloid nucleation score entry is “inactive”.

On to CSYYFQLNMVSKECPRS, for which the amyloid nucleation score is 0.562 ± 0.14.

CTDIICMIRFVVLDMRGAN came in with an amyloid nucleation score of 0.981 ± 0.12.

In the case of CTECDNSFRPLKNRDTYTAR, the amyloid nucleation score came to 0.046 ± 0.27.

Regarding CTGSWMVTAERLARACHTRL, the amyloid nucleation score entry was “inactive”.

In the case of CTHEFTTRHLICFRFSKLVY, the amyloid nucleation score entry was “inactive”.

Take CTSAKIICHQSMRTRCTEQD: the amyloid nucleation score result is “inactive”.

Consider CTSQVDT, for which the amyloid nucleation score entry is “inactive”.

On to CTTDRGVVLWVCRNG, for which the amyloid nucleation score entry is “inactive”.

Turning to CVDCRGESAHLLIARWFMRR, the amyloid nucleation score was determined as 0.387 ± 0.38.

On to CVDYKRMNGFKCTLDVFRAI, for which the amyloid nucleation score was found to be 0.184 ± 0.61.

CVEVWLPYFFLSMS: the amyloid nucleation score result is “inactive”.

Regarding CVGGSVFVACMLRSRVWGWC, the amyloid nucleation score result was “inactive”.

For CVGYMGLGALEYIVNAHGGI, the amyloid nucleation score entry is “inactive”.

For CVNLRNIRFSTLRGMGGWI, the amyloid nucleation score result is “inactive”.

With CVNTIFTRRFWNEGSIPAGL, the amyloid nucleation score entry was “inactive”.

Substance CVQLKSTSHVYYFRDQVGLD came in with an amyloid nucleation score of 1.41 ± 0.087.

With CVRNENRSGS, the amyloid nucleation score was -0.974 ± 2.5.

For CVSDLCSW, the amyloid nucleation score result is “inactive”.

The substance CVSEKQWLSVVVELVFWGCG gave an amyloid nucleation score of -0.821 ± 1.3.

Substance CVVDNRRCLFLYWSLVSFNW displayed an amyloid nucleation score of 1.18 ± 0.13.

The substance CWRCFSAD returned an amyloid nucleation score of 0.041 ± 0.6.

On to CWSRMNSVDAIYK, for which the amyloid nucleation score result is “inactive”.

For CWVVHGNNRVHGHMLGLRAI, the amyloid nucleation score entry is “inactive”.

For the substance CYFTASCLWMNANIDVSLSK, the amyloid nucleation score result is “inactive”.

With CYGKTGSCFSVLHGWGGFVM, the amyloid nucleation score result was “inactive”.

In the case of CYMFRDDRIVYHDGLNRHCK, the amyloid nucleation score result is “inactive”.

The substance CYNDRFFIVSIYRDQ came in with an amyloid nucleation score of 1.07 ± 0.1.

CYSFLWALRGMEF: the amyloid nucleation score entry is “inactive”.

As to CYWTYVRLSSVFRDHIVALT, the amyloid nucleation score entry is “inactive”.

On to DALIRY, for which the amyloid nucleation score result is “inactive”.

In turn, DAPSFLSMSRFAFYNFNLYW had an amyloid nucleation score of 1.29 ± 0.12.

Consider DCKINIGVVVSLGACLSWSE, for which the amyloid nucleation score worked out at 1.65 ± 0.084.

On to DCSSNVRTSCWNHRSYHVVY, for which the amyloid nucleation score result is “inactive”.

Regarding DCYMDLSRQFRNRCGLASFY, the amyloid nucleation score result was “inactive”.

Turning to DCYRGVSLCELFDECR, the amyloid nucleation score entry is “inactive”.

As to DDIYKEVDRWKNWYRRLKHT, the amyloid nucleation score entry is “inactive”.

With DDRSP, the amyloid nucleation score entry is “inactive”.

For DEAMEDFEWRRMGLV, the amyloid nucleation score result is “inactive”.

For DEFEMLLEGWVSVVGMMTRE, the amyloid nucleation score entry is “inactive”.

On to DEKIGGTVKYGVVQAYV, for which the amyloid nucleation score result is “inactive”.
